In patent US20230183233A1, “Bicyclic Pyridin-2-one and pyrimidin-4-one Derivatives Useful As a Factor XIa Inhibitors” (Janssen Pharmaceutica NV, priority 2021, published 2023) one finds Km, kcat and kcat/Km data, which are given here for 1 substance.

For the data set, the system named is Cc1cc(=O)oc2cc(NC(=O)[C@H](CCCNC(=N)N)NC(=O)[C@@H]3CCCN3C(=O)CNC(=O)OCc3ccccc3)ccc12. In words: Kallikrein inhibition assay utilizing a quenched AMC peptide substrate (FLINT, kinetic read). Type of data set: biochemical, human. The settings on record: other: peptide substrate for kallikrein; titration data fit to the Michaelis-Menten equation; pH 7.5.

What is called Km is the concentration of substrate that gives half-maximal velocity. As usually defined, the kcat is the number of substrate molecules converted per active site and unit of time at saturation.

Sequence of human plasma kallikrein (Homo sapiens) (chain, as listed by the source): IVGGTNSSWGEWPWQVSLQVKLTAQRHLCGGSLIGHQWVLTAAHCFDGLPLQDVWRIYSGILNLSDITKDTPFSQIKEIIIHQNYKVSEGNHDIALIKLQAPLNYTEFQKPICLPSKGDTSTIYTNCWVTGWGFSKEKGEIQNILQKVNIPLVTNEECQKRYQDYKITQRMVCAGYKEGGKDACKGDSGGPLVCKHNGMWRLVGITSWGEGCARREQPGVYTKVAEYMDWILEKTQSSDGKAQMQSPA

Consider human plasma kallikrein (Homo sapiens), for which the Km came out at 40 µM, the kcat came out at 0.76 s⁻¹ and the kcat/Km stood at 18932 M-is-1.
